Series [1] deals with T1, Bcl-xL (Homo sapiens, UniProt Q07817). Description: In vitro protein binding assay, 35S labeled protein with GST-Bcl-xL on glutathione-agarose beads. Further details: made in house; host or cells: E. coli. Particulars: in vitro translated 35S labeled protein; GST alone as specificity control. The protocol:
A). Bak/Bcl-xL interactions measured in vitro. ^35S labeled in vitro translated Bak (lane 1) was mixed either with GST-Bcl-xL (lane 2) or GST (lane 3). The complexes were captured on glutathione-agarose beads, and bound ^35S labeled Bak protein was detected by electrophoresis on SDS polyacrylamide gels followed by autoradiography.
The beads were removed by centrifugation and the supernatants were incubated with GST or GST-Bcl-xL (final concentration […]) at 4° C. for 1 hour. The GST fusion proteins and any interacting proteins were recovered by incubation for 1 hour with an additional […] of GSH-agarose beads. The beads were washed twice with NP-40 lysis buffer followed by two washes with NP-40 lysis buffer without NP-40. Proteins were eluted from the beads by incubation in SDS-PAGE sample buffer at 100° C. for 5 min and loaded onto 4-20% SDS-polyacrylamide gels. Following electrophoresis, gels were fixed and incubated in a fluorography enhancing solution (Amplify; Amersham). The gels were dried and subjected to autoradiography at −70° C.

The subject of a further series is Rat-1 cells. Description: Transient transfection cell killing assay (loss of β-galactosidase-positive blue cells). In kind it is cell-based. Particulars: Rat-1 cells co-transfected with β-galactosidase marker plasmid, 24 hours post transfection, relative to control vector. How it is done: (§1) The transient transfection assay procedure is similar to that previously described for detecting apoptosis induced by IL-1E-converting enzyme (Miura et al., Cell 75: 653-660 (1993); Kumar et al., Genes Dev. 8: 1613-1626 (1994); Wang et al., Cell 78: 739-750 (1994). One day prior to transfection, Rat-1 cells were plated in 24 well dishes at 3.5X10^4 cells/well. The following day, the cells were transfected with a marker plasmid encoding β-galactosidase (0.16 μg), in combination with an expression plasmid encoding Bak (0.42 μg), by the Lipofectamine procedure (Gibco/BRL). At 24 hours post transfection, cells were fixed and stained with X-Gal to detect J-galactosidase expression in cells that received plasmid DNA (Miura et al., supra). The number of blue cells was counted by microscopic examination and scored as either live (flat blue cells) or dead (round blue cells). The cell killing activity of Bak in this assay is manifested by a large reduction in the number of blue cells obtained relative to co-transfection of the β-gal plasmid with a control expression vector (i.e., with no bak cDNA insert).
The interpretation that loss of blue cells reflects the cell killing function of Bak is supported by a variety of observations: • 1. Rat-1 cells are rapidly killed by enforced Bak expression in stable transfection assays; • 2.
Enforced bak expression induces apoptosis in stable Rat-1 cell lines transfected with an inducible bak expression plasmid. In order to more rapidly assess the cell killing function of a large number of bak mutants, a transient transfection assay was employed. Rat-1 cells were transfected with a marker plasmid encoding β-galactosidase, in combination with an expression plasmid encoding Bak, or various control plasmids.

Series [2] has as its system Hela (cervical carcinoma) cells. Description: Transient transfection cell killing assay in Hela cells. It is filed as cell-based, human. How it is done: (§2) Cells were fixed and stained with X-gal at 24 hours post-transfection, and the number of blue cells (β-galactosidase-positive) counted by microscopic examination. B. Mouse Embryonic Fibroblasts (MEF) lacking functional p53 (p53^−/−MEF) were co-transfected as described in(A). C. Hela cells, derived from cervical carcinoma, were co-transfected as described in (A). D. BT549 cells, derived from breast carcinoma, were co-transfected as described in (A).
as §1, with “The cell killing activity of Bak in this assay is manifested by a large reduction in the number of blue cells obtained relative to co-transfection of the β-gal plasmid with a control expression vector (i.e., with no bak cDNA insert).” left out
(§3) Bak cell killing activity was assessed in several additional cell lines. […]

Series [3] deals with Mouse Embryonic Fibroblasts (MEF) lacking functional p53. Put plainly: Transient transfection cell killing assay in p53-/- fibroblasts. In kind it is cell-based. Particulars: p53-/- transformed mouse fibroblasts, co-transfection with β-gal. The protocol:
as §2
as §1, with “The cell killing activity of Bak in this assay is manifested by a large reduction in the number of blue cells obtained relative to co-transfection of the β-gal plasmid with a control expression vector (i.e., with no bak cDNA insert).” left out
as §3

Series [4] addresses T1, Bcl-xL. Description: Co-immunoprecipitation of epitope-tagged proteins from transfected COS cells. Particulars: anti-HA immunoprecipitation, western blot. It is filed as cell-based. The protocol: B). Bak/Bcl-xL interactions detected in transfected cells. Plasmids expressing epitope-tagged forms of Bak and Bcl-xL (HA-Bak and Flag tag-Bcl-xL) were co-transfected into COS cells. HA-Bak was immunoprecipitated (anti-HA IP) from transfected cell lysates and associated Bcl-xL was detected by Western blot analysis with an anti-Flag tag antibody.
COS cells were grown in Dulbecco's modified Eagle's medium (Life Technologies, Inc.) supplemented with 10% bovine calf serum, 2% L-glutamine and 1% pen/strep (Life Technologies, Inc.). Cells were seeded at 2.0×10^5 cells/35 mm well and transfected with expression plasmids 24 hours later using Lipofectamine as described by the supplier (Life Technologies, Inc.). Bak (and Bak mutants) was expressed as a fusion protein with the HA epitope tag at its amino terminus. Bcl-xL was also expressed with an amino terminal epitope tag (Flag; Kodak). At 24 hours post-transfection, cells were washed with phosphate buffered saline and lysed in NP-40 Lysis buffer also containing 1 mM PMSF, […] pepstatin, and […] leupeptin. The lysates were incubated with anti-HA antibody (12CA5, Boehringer Mannheim) for 1 hour and with […] BSA-washed Protein A-agarose beads (50% slurry) for an additional hour. The beads were washed twice with NP-40 lysis buffer followed by two washes with NP-40 lysis buffer without NP-40. […]

For series [5], the system named is BT549 (breast carcinoma) cells. Description: Transient transfection cell killing assay in BT549 cells. It is filed as cell-based, human. How it is done: as §2
as §1, with “The cell killing activity of Bak in this assay is manifested by a large reduction in the number of blue cells obtained relative to co-transfection of the β-gal plasmid with a control expression vector (i.e., with no bak cDNA insert).” left out
as §3

Series [6] addresses T1, Bcl-xL. Description: GST-PEM in vitro binding of 35S labeled Bcl-xL. On the set-up: made in house; host or cells: E. coli. Particulars: GST fusion, in vitro translated 35S labeled Bcl-xL; GST alone as control. The source says:
(§4) Complexes were captured with glutathione-agarose beads, washed, and bound proteins detected by polyacrylamide gel electrophoresis and autoradiography. […] Thus, the GD domain can mediate interaction not only with Bcl-xL but also Bak and Bax.
(§5) Complexes were captured with glutathione-agarose beads, washed, and bound proteins detected by polyacrylamide gel electrophoresis and autoradiography.

In the next series the target is T2, Bip1a (Homo sapiens, UniProt Q13323).
T2 construct: host or cells: coupled transcription/translation in rabbit reticulocyte lysate
T2 sequence (Q13323 1-160): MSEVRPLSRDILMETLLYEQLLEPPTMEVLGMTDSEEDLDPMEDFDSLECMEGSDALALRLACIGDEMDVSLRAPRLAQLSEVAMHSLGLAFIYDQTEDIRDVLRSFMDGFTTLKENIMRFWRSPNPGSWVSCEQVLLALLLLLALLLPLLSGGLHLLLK
Description: GST-PEM in vitro binding of 35S labeled Bip1a. Particulars: GST fusion, in vitro translated 35S labeled Bip1a.
From the text: as §4, §5

The target in the next series is T3, Bax (Homo sapiens, UniProt Q07812).
T3 construct: host or cells: coupled transcription/translation in rabbit reticulocyte lysate
Put plainly: GST-PEM in vitro binding of 35S labeled Bax. Particulars: GST fusion, in vitro translated 35S labeled Bax; GST alone as control.
From the text: as §4, §5

The target in a further series is T4, Bak (Homo sapiens, UniProt Q16611).
T4 construct: diminished relative to full length Bak; host or cells: coupled transcription/translation in rabbit reticulocyte lysate
T4 sequence (Q16611 1-211): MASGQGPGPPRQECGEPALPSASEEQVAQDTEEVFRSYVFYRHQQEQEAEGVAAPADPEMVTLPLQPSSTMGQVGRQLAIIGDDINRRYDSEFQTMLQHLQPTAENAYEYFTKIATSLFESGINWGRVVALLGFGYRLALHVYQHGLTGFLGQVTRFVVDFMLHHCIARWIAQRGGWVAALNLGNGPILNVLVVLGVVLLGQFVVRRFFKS
Put plainly: GST-PEM in vitro binding of 35S labeled Bak. Particulars: GST fusion, in vitro translated 35S labeled Bak; GST alone as control.
From the text: as §4, §5

For a further series, the target named is T5, GST-Bcl-xL (Homo sapiens, UniProt Q07817).
T5 construct: made in house; host or cells: E. coli
Put plainly: High through-put screening assay 1: biotinylated GD peptide on GST-Bcl-xL-coated multiwell plates, ELISA. It is filed as binding. Particulars: ELISA with streptavidin-conjugated HRP, 4° C. for 1 hour. The protocol:
Multiwell plates (Nunc Maxisorp) were coated with GST-Bcl-xL and blocked with 1% normal goat serum in PBS. A N-biotinylated GD peptide corresponding to Bak (71-89; […] [SEQ ID NO: 35]) was added and the plates were incubated at 4° C. for 1 hour. The plates were washed to remove unbound GD peptide and the amount of bound peptide was determined by ELISA using streptavidin-conjugated horse radish peroxidase. Coating with GST-Bcl-xL was omitted in the control wells.
According to the present example, multiwell plates coated with GST-Bcl-xL were incubated with a labeled GD domain peptide probe. […] More specifically, wells in a multiwell plate were coated without (control) or with GST-Bcl-xL and then incubated with a GD domain peptide derived from the Bcl-2 homolog Bak (amino acid residues 71-89; […] [SEQ ID NO: 35]). The peptide was labeled by biotinylation at the amino terminus to allow detection and quantitation of bound peptide using streptavidin-conjugated horse radish peroxidase (HRP) in a standard ELISA procedure. […] Compounds that antagonize GD domain-mediated interactions can be conveniently identified using this assay by adding candidate compounds to the wells during the binding step. Those compounds that disrupt the interaction of the biotinylated GD domain peptide with GST-Bcl-xL will cause a decrease in the ELISA signal.

In series [7] the target is T6, Bcl-xL/Bak GD domain interaction (Homo sapiens, UniProt Q07817).
T6 construct: made in house; host or cells: E. coli
Description: High through-put screening assay 2: GST-Bcl-xL binding to biotinylated Bak GD peptide on neutravidin wells, ELISA. Particulars: peptide bound to neutravidin-coated wells, ELISA with anti-GST-HRP. How it is done:
An assay was developed to screen for compounds that block the interaction between the Bcl-2 homologs, Bcl-xL and Bak. A synthetic peptide corresponding to the Bak GD binding domain ([…] [SEQ ID NO: 35]) was biotinylated and bound to wells coated with neutravidin. […] Peptides encompassing the GD domain from various Bcl-2 family members were tested for their ability to block GD domain-mediated interactions in this assay. Peptides tested: Bcl-w [SEQ ID NO: 39] […] ([…]), Bak [SEQ ID NO: 36]([…]), Bak-15 [SEQ ID NO: 37] ([…]), Bak-15L78A [SEQ ID NO: 38] ([…]), control (no peptide).
In a modification of the high through-put screening assay 1 described herein, wells are coated with an avidin derivative, to which a biotinylated peptide/protein is bound. A GST-fusion protein that can interact with the biotinylated peptide/protein is added in the presence or absence of test compounds. The plates are incubated and then unbound GST-fusion protein is removed by washing. The amount of GST-fusion protein specifically bound to the tethered peptide/protein is determined by ELISA using an anti-GST antibody conjugated to horse radish peroxidase. Compounds which block the interaction between the biotinylated peptide/protein and the GST-fusion protein cause a decrease in the ELISA signal.
In a specific example, an assay was developed to screen for compounds that block the interaction between the Bcl-2 homologs, Bcl-xL and Bak. A biotinylated Bak GD domain peptide (amino acid residues 71-89; N-biotinylated […] [SEQ ID NO: 35]) was bound to wells coated with neutravidin. […] Using this assay, peptides from Bcl-2 family members were identified which block the Bcl-xL/Bak GD domain interaction (FIG. 10).

Ends that are not written are not given here. * marks the point of attachment. Biotin = O=C1N[C@H]2[C@H](CS[C@H]2CCCCC(=O)*)N1

T1 sequence (Q07817 whole entry): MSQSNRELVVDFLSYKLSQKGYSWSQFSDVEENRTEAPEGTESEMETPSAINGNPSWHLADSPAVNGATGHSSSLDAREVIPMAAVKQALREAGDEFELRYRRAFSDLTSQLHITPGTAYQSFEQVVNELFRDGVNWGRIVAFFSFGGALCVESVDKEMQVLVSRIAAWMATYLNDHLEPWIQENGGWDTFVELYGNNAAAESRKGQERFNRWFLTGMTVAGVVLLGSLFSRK
T5 sequence (Q07817 whole entry): as above
T6 sequence (Q07817 whole entry, the tested form may be a part): as the sequence (Q07817 whole entry) above
T3 sequence (Q07812 whole entry): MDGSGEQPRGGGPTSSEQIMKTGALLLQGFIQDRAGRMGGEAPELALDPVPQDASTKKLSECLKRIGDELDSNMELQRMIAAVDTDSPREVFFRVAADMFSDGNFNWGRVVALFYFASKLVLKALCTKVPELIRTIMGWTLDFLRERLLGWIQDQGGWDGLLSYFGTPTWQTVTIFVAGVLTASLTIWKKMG

“Bak: Bcl-2 related cell death protein, HA-epitope tagged, expressed from plasmid or in vitro translated”: the “binding to GST-Bcl-xL in vitro” value in the series with Bcl-xL [1] was “binds”. For the same substance, in the series on Rat-1 cells, the “cell killing activity (reduction in number of blue β-gal expressing cells)” value is reported as “large reduction in the number of blue (β-gal expressing) cells”. Further, the “cell killing (number of blue cells)” value is on record as “can kill human tumor cells” in [2], “greatly reduced the number of blue cells” in series [3] and “can kill human tumor cells” in [5]. Moreover, the “interaction with Bcl-xL in transfected cells” value with Bcl-xL [4] is “specific Bak/Bcl-xL interaction could also be detected”.

As for “GST-PEM: portion of Bak (PEM, residues 58-103) encompassing the GD domain fused to GST, bacterially expressed”, the “interaction with Bcl-xL” value with Bcl-xL [6] is recorded as “interact specifically”. Moreover, the “interaction with Bip1a” value with Bip1a was “does not interact”. The “interaction with Bax (heterodimerization)” value with Bax is listed as “interact specifically”. Moreover, the “interaction with Bak (homodimerization)” value with Bak is given as “interact specifically”.

Turning to “MGQVGRQLAIIGDDINRRY (Biotin-MGQVGRQLAIIGDDINRRY) [SEQ ID NO: 35, Bak GD domain peptide, amino acid residues 71-89, biotinylated at the amino terminus]”, in the series with GST-Bcl-xL, the “binding of biotinylated peptide to GST-Bcl-xL-coated wells” value is given as “specifically interacts in a concentration-dependent manner”. In addition, the “binding of GST-Bcl-xL to the tethered biotinylated peptide” value in series [7] was “bind specifically”.
